Assay results reported in the nanobody polyreactivity screen of Harvey et al. (2022).

Test: yeast display, Sf9 membrane polyspecificity reagent, FACS + sequencing; frameworks hold sequencing errors
Procedure, shortened: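 Nanobodies came from a synthetic yeast display library in Saccharomyces cerevisiae BJ5465, induced with galactose for 36–48 hours and stained for 1 hour at 4 °C with 10% biotinylated, detergent-solubilized Sf9 membrane reagent. Cells were enriched on streptavidin microbeads and then FACS-sorted, with low and high (top ~1%) gates set on anti-HA fluorescence for expression and streptavidin fluorescence for reagent binding. Each polyreactivity label reflects the gate a clone came from. Genes were amplified by colony PCR, sequenced by MiSeq 2 × 250 and filtered by CDR length.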

Sequence	polyreactivity (PSR sort gate)
QVQLEESGGGLDQAGGSLRLTCAASGSTFLFYAMGWYRQAPGKESELVAAIRWSGGSTYADSVKGRFTISRDNAKYTVYLPMNSLKPEDTAVYYCATTYRPTFRRHYKYWGQGTQVTVSS	low polyreactivity
QVQLVESGGGLVQAGGSLRLSCAASGLTFYYNAMGWYRQAPGKERELVAAISRYGGSTYYADSVKGRFRISRDNAKNTDYLQMNSLKPEDTAVYYCAVAYVYTRKGRVQPVKYDYWGQGTQVTVSS	high polyreactivity
QVQLEESGGGLVQAGGSLRLTCAASGFTINEYAMGRYIQAPGKERELVAAISRGGTTYYADSVKGRFTISRDNAKNTVYLQMNSLKPEDTAVYYCAAPYFWNTEMDYWGQGTQVSVSS	low polyreactivity
QVHLVESGGGLVKAGGSLRLSCAASGRTFYKYAKGWYRQAPGKEREFVADISSRGGSTYYEDSVKGRFTISRDNAKNTLYLQMNSLKPEDTAVYYCNSRRNSVRYNYWGQGTQVTVSS	high polyreactivity
QVQLVESGGGLVQAGGSLRLSCAASGSTFIGYAMGWYRQAPGKDRELVAAITRSGGRTYYADSVKGRFTISRDNAKNTVYLQMNSLKPEVSAVYYCAARVKGQWNTYDYWGQGTQVTVSS	high polyreactivity
QVQLVESGGGLVQAGGSLRLSCAASGRIFRWYGMGWYRQAPRKERELFAAISGRGGSTYYADSVKGRFTISRDIAKNTVYLQMNSLKPEDSGVYYCKKDPYYIYRPGSGQGYAFNYWGQGTQVTVSS	high polyreactivity
QVQLVESRGGLVQAGGSLRLSCAASGFTFDNYGMGWYSQAPGKERELVAAISKSGTSTYYADSGKGRFTITRDNAKNTVYLQMNSLNPEDTAVYYCSGALPGYGDYYYWGQGTQVTVSS	high polyreactivity
QVQLVESGGGLVQAGGSLRLSCAASGFTFIYYTMGWYRQAPGKEREFVAAISWGGSTYYADSVKGRFTISRDNAKITVYLLMNSLKPEDTAVYYCNAVSAVAYTRFVYWGQGTQVTVSS	high polyreactivity
QVQLVESGGGLVQAGGSLRLSCAASGRTFYPYAMGWYRQAPGKERELVARISRGGRTNYADSVKGRFTISRDNAKNTVYLQMNSLKPEDTAVYYCAADYYGSYFITEDYWGQGTQVTVSS	low polyreactivity
QVQLEESGGGLVQAGGSLRLSCAASGFTFIRYAMGWYRQAPGTERELVAAIRGTGTSTYYADSVKGRFTISRDNAKNTVYLQMNSLKPEDTAVYYCNKVAGRSPYTRYDYWGQGTQVTVSS	low polyreactivity
QVQLVESGGGLVQAGGSLRLSCAASGNIFDTYVMGWYRQAPGKERELVAAITSDGGTYYADSVKGRFTIARDNAKNTVYLQMNSLKPEDTAVYYCAADTYYYPIQDYWGQGTQVTVSS	low polyreactivity
QVQLVESGGGLVQAGGSLRLSCAASGFTFWRNALGWYRQAPGKERELVAAISWRGGSTYYADSVKGRFTISRDNAKNTVSLQINSRKPEDTAGYYCNVVYFRYYSGEYDYGGQGTQVTVSS	high polyreactivity
QVQLVESGGGLVQAAGSLRLSCAASGSPFSGYAMGWYRQPPGKQRELVAAISWRGVRTSYADSVKGRFTISRDNAKNRVYLQMNSLKPEDSAVYYCDAVRYITKEFYWGQGTQVTVSS	high polyreactivity
QVQLVESGGGLVQAGGSLRLSCAASGFTFSVYAMGWYRQAPGKERELVASITNGGTTYYADSVKGRFTISRDNAKNTVYLQMNSLKPEDTAVYYCAAKLYSWYHKFVNPTYGYWGQGTQVTVSS	high polyreactivity
QVQLVESGGGLVQAGGSLRLSCAASGSTFSYYALGWYRQAPGKEREFVAAISRSGGRTYYADSVKGRFTFSRDNAKNTVYLQMNSLKPEDTAVYYCATVYYYDFSRTHPWPGDYWGQGTQVTVSS	high polyreactivity
QVQLVESGGGLVQAGGSLRLSCAASGFISAYYALGWSRQAPGKERELVAGITRGGNTYYADSVKGRFTISRDNAKNTVYLQMNSLKPEDTAVYYCAAEGSHNSEYWGQVTQVTVSS	high polyreactivity
QVQLVESGGGLVQAGGSLRLSCAASGRIFGSYTMGWYRQAPGKERELVAAISFSGARTRYADSVKGRFTISRDNANNTVYLQMNSLKPEDTAVYYCAARFTGGKYDYWGQGTQVTVSS	high polyreactivity
QVQLVESAGGLVQAGGSLRLSCAASGLIFARNSMGWYRQAPGKERELVAAISKRGGSTFYADSVKGRFTISRDNAKNTVYLQMNSLKPVDTAVYYWNARSSETWHGDYWGQGTQVTVSS	high polyreactivity
QVQLVESGGGLVQAGGSLRLSCVASGSIFKQYAMGWYRQAPGKERELVAGISKTGGRTYYADSVKGRFTISRDNAKNTVYLQMNSLKPEDTAVYYCAAYFRSDYGYWGQGTQVTVSS	high polyreactivity
QVQLVESGGGLVQAGGSLRLSCAASGRTFLTNPMGWYRQAPGKETELVAVITSSGGTYYADSVKGRFSISRDNAKNTVYLQMNSLKPEYTEVYYCNTRQQFTLTRGVFLHNYWGQGTQVTVSS	high polyreactivity
QDQLVESAGGLVQAGGSLRLSCAASGFTFINNDMGWYRQAPGKERELVAAISDSDGTTYYADSVKGRFTISLDHAKNTVYLQMNSLKPEDTAGYYCAADVVPTWEDEYWRQGTQVTVSS	low polyreactivity
QVQLVESGGGLVQAGGSLRLSCAASGLIFKLYAMGWYRQAPGKERELVAAITDRGGSTYYADSVKGRFTISRDNAKNTVYLQMNSLKPEDTAVYYCAAPYAGWRDGGDYWGQGTQVTVSS	low polyreactivity

Sequence	polyreactivity (PSR sort gate)
QVQLVESGGGLVQAGGSLRLSCAASGYTFNYYAMGWYRQAPGKEREFVASTYADSVKGRFTISRDNAKNTVYLQMNSLKPEDTAVYYCNARNLGRYLVLSYGYWRQGTQVTVSS	low polyreactivity
QVQLVESGGGLVQAGGSLRLSCAASGRTSGYYAMGWYRQAPGKERELVAAISGGDSTNYADSVKGRFTFSRDNAKNTVYLQMNSLKPEDTAVYYCAKRTRVSWVPTFDYWGQGTQGTVSS	low polyreactivity
QVQLVESGGGLVQAGGSLRLSCAASGSIFSYNAMGWDRQAPGKESELVAAITSGGGTNYADSVKGRFTISRDNAKNTVYLQINSLKPEDTAVYYCNAVPNYYDYDSWGQGTQVTVSS	high polyreactivity
QVQLVESGGGLVQAVGSLRLSCAASGFTFSVNAMGWYRQAPGKERELVAAITRSGGRTYYADSVKGRFTISRDNAQNTVYLQMNSLKPEDTAVYYCATPRSRTDGYDYWGQGTQVTVSS	high polyreactivity
QVQLVESGGGLVQAGGSLRLSCAASVRTFTPYAMGWYRQAPGKEREFVAAISIVGRKKYADSVKGRFTISRDNAKNTVYLQMNSLKPEDTEVYYCNAQDSRDRKFYWGYTRGHWGLGTQVTVSS	low polyreactivity
QVQLVESGGGLVQAGGSLRLSCAASGYTFVYNGMGWYRQAPGKERELVAAIRRRTGTTYYADSVKGRFTISRDNAKNTVYLQMNSLKPEDTAVYYCAATGFWGYDWGQGTQVTVSS	high polyreactivity
QAQLVESGGGLVQAGGSLRLICAASGSTFGVNAMGWYTQAPGKERELVAIITSTTYADSVKGRFTISRDNAKNTVYLQMNSLKPEDTAVYYCAKVQERVTKGRFYLLEYYWGQGTQVTVSS	low polyreactivity
QVQLVESGGGLVQAGGSLRLSCAASGFTFSRYAMVWYRKAPGKDRELVAVISSSGSRTYYADSVKGRFSISRHNAKNTVHLQMNSLQPEDTAVYYGAAKSYTVTAYEYWGQGTQVTVSS	high polyreactivity
QDQLVESGGRLVQAGGSLRLSCAASGITFSRYAMGWYRQAPGKEWELVAAISCSGARTYYADSVKGRFTISRDNAKNTVYLQMNSLKPEDTAVYYCDRFLRNFKTYDYWGQGTQLTVSS	high polyreactivity
QVQLVESGGGLVQAGGSLRLSCAASGRTFFKYAMGGYRQAPGKERELVAAITGRGDRTYYADSVKGRFTISRDNAKNTVYLQMNSLKPEDTAVYYCAAGAPAHHASFYYWGQGTQVTVSS	high polyreactivity
QVQLVESGGGLVQAGGSLRLSCAASGRTFRWYAMGWYRQAPGKERELVASITWSGGSTYYADSVKGRFTISRDNAKNTVYLQMNSLKPEDTAVYYCNRVLVVSMYEGNYWGQGTQVTVSS	high polyreactivity
QVQLVESGGGLVQAGGSLRLSCAASGFTFQKNAMGWNRQAPGKERDLVARITRSDGSTYYADSVKGRFTISRDNAKNTVYLPMNSLKPEDTAVYYWAARYCRLGSSRGGYWGQCTQVTVSS	low polyreactivity
QVQLVESGGGLVQAGGSLRLSCAASGITFDAHAMGWYRQAPGKERELVARISSGGSTNYADSVKGRFTISRDNAKNTVYLQMNSLKPEDTAVYYCANSYLYGFDYWGQGTQVTVSS	low polyreactivity
QVQLVESGGGLVQAGGSLRLSCAASGSTFAYYTMGWYRQAPGKERELVAAITSGGRTSYADSVKGRFTISRDNAKNTVYLQMNSLKPEDTAVYYCAKGRKPGYYYWGQGTQVTVSS	high polyreactivity
QVQLVESGGGLVQAGGSLRLSCAASGSTLTRNTMGCYRQAPAKERELVATNTRSGGSTYYADSVKGRFTISRDNAKNTVYLQMNSLKPEDTAVYYCAVRRQTFRYVYPGMDYWGQGTQVTVSS	high polyreactivity
QVQLVESGGGLVQAGGSLRLSCAASGSTFYDYVMGWYRQAPGKERELVAAITGDGTTDYADSVKGRFTISRDNAKNTVYLQMNSLKPEDTAVYYCNADISLDYDYWGQGTQVTVSS	low polyreactivity
QVQLVESGGGLVQAGGSLRLSCAASGLIFTGYVMGWYRQAPGKERELVAVIRSGDSTYYADSVKGRFTISRDNAKNTVYLQMNSLKPEDTAVYYCAKYDTGGRAHDYWGQGTQVTVSS	low polyreactivity
QVQLVESGGGLVQAGGSLRLSCAASGYIFYTYAMGWYRQAPGKERELVASIDSGGSTNYADSVKGRFTISRDNAKNTVYLQMNSLKPEDTAVYYCAADVIVRVYYYYYVLMDYWGQGTQVTVSS	low polyreactivity
QVQLVESGGGLVQAGGSLRLSCAASGSILYYYAMGWYRQAPGKERELVAAISSSGGRTYYADSVKGRFTISRDNAKNTVYLQMNSLKPEDTAVYYCAATNRRQPYKDREDYWGQGTQVTVSS	high polyreactivity
QVQLVESGGGLVQAGGSLRLSCAASGGIFVDNAMGWYRQAPGKERELVATITSTGSTNYADSVKGRFTISRDNAKNTVYLQMNSLKPEDTAVYYCNADGILQDYDYWGQGTQVTVSS	low polyreactivity
QVQLVESGGVLVQAGGSLRLSCAASGFIFRSNGMGWYRQARGKERELVAVITSSTGSTSYADSVKGRFTISRDNAKNTVYLQMNSLKPEDTAVYSCAADYQFGRGAEPYVFFDPEMDYWGQGTQVTESS	low polyreactivity
